Reference: the DeepSol protein solubility set

Test: soluble on expression in E. coli; label from the status in PepcDB or PDB records

Row | Sequence | soluble on expression in E. coli
1 | MSEITTLQPSLLWKWFDQICAIPHPSHYEDTLANFIVNWAKEKHFFVERDEVGNVLIRKPATKGMENHTPVVLQAHLDMVPQANEGNPHDFTKDPIQPYIDGEWVKARGTTLGSDNGIGLASTLAVLESNDLAHPPLEVLLTMTEETGMDGAKGLRHNWLQSEILINTDTEEIGEIYIGCAGGINANFEIPVQYETNTFEHSAQITLKGLRGGHSGGDIHTGRANAIKVLARVLAKLSQNQPHFALSEIRGGSIRNAIPREAAAVLAFNGDVKTIESAVENLAVVLKEELAIAEPNFTLFVESAEKAPTVFTAQSTQTVINALNVLPNGVIRNSDVVKNVVESSLSVGVLKTEGNVVKSTILVRSLIESGKYYVTEMLSSLAILANAKVEFSAPYPGWQPVNDSTILDVTRKHYAEVLGEQPVVKVIHAGLECGLLKEHYPNIEMISVGPTIRNAHSPDEKVEIATVQTYWDLLTRVLADIPAK | soluble
2 | MRITTKVGDKGSTRLFGGEEVWKDSPIIEANGTLDELTSFIGEAKHYVDEEMKGILEEIQNDIYKIMGEIGSKGKIEGISEERIKWLEGLISRYEEMVNLKSFVLPGGTLESAKLDVCRTIARRAERKVATVLREFGIGKEALVYLNRLSDLLFLLARVIEIEKNKLKEVRS | soluble
3 | MYRLERTQRLPISIDEAWDFFASPDNLKKITPAYMGFDIKSGGGIPMYAGMIIKYTVRPLLGIPMTWVTEITHVEPQRFFVDEQRVGPYAIWHHQHHFKAIENGVEMTDILHYKLPFGILGNLAHPFLVKNKLEEIFNFRNKKMVELFGTYKLEHHHHHH | soluble
4 | NAMPPIIKRRVMRKIIIASQNPAKVNAVRSAFSTVFPDQEWEFIGVSVPSEVADQPMSDEETKQGALNRVRNAKQRHPGAEYYVGLEAGIEENKTFAWMIVESDQQRGESRSACLMLPPLVLERLRQAKELGDVMDEVFGTENIKQKGGAIGLLTRHHLTRSTVYHQALILALIPFINPEHYPSA | soluble
5 | MIVSILGAGAMGSALSVPLVDNGNEVRIWGTEFDTEILKSISAGREHPRLGVKLNGVEIFWPEQLEKCLENAEVVLLGVSTDGVLPVMSRILPYLKDQYIVLISKGLIDFDNSVLTVPEAVWRLKHDLRERTVAITGPAIAREVAKRMPTTVVFSSPSESSANKMKEIFETEYFGVEVTTDIIGTEITSALKNVYSIAIAWIRGYESRKNVEMSNAKGVIATRAINEMAELIEILGGDRETAFGLSGFGDLIATFRGGRNGMLGELLGKGLSIDEAMEELERRGVGVVEGYKTAEKAYRLSSKINADTKLLDSIYRVLYEGLKVEEVLFELATFK | soluble
6 | MSLTQTPNTGSPHRVVIVGGGAGGLELAAKLGRAHGRERVTLVDSRPFHIWKPSLHEAAAGTLDIHQEGLSYLMLANMCNFTFAQGELQGIERERRQIQVGPVADPSGQQVLPPRELSYDTLVLAMGSTSNFFNTPGAAEHAVTLDTTENAEQFRLTMLKAMVQVDLRKVHDPSARLDLVIVGGGATGVELAVELIEASHVVSAYGLPNFRADRDLVITLVEGAPRILSALPEKISRAAHARLTELGVRVETDCRVAEVGADHVVTADGRRFEATMCLWAAGIEGPPLFRQLGLPLNRLGQLEVNERLESPDPHILALGDCCAAPWKDGRTVPARAQAAHQQADYLARKLTARLRNAAEPTEAYAYHDHGSLVSLGQGSGVGSLMGKLAGRGLFVSGTLARLMYMSLHLMHHRAVLGISRTATLALARLLMRRTRPRVKLHEGHHHHHH | soluble
7 | MSLIDIHNHILPNIDDGPTNETEMMDLLKQATTQGVTEIIVTSHHLHPRYTTPIEKVKSCLNHIESLEEVQALNLKFYYGQEIRITDQILNDIDRKVITGINDSRYLLIEFPSNEVPHYTDQLFFELQSKGFVPIIAHPERNKAISQNLDILYDLINKGALSQVTTASLAGISGKKIRKLAIQMIENNLTHFIGSDAHNTEIRPFLMKDLFNDKKLRDYYEDMNGFISNAKLVVDDKKIPKRMPQQDYKQKRWFGLEGHHHHHH | soluble
8 | MGSDKIHHHHHHMEKILTKQEIEALLAAVFEGKIEPDKELAKAEATVQSYDLFSSESKGNIPNLDIIYDSFIRYQRGTLSNRLGRIVEIKKVGAASFKFDDFLHTMPSPVAMAVYKADPLKGAALIAFDSTLVFTIVDCILGGTGSSVVPTVGNRMFTSIELRLVQKIVMDVLADLEKAWAPIYATKMGFLRMEMNPRLVNIVPPEYQVVTMEMEIQIEEIIGKMIFAVPLTTIDPVREKLKNGAQVDMMAIDPQWSFRLSKELLEAPLDLSVEVGGAIISMDELLNLTPGDTIMLDTPCNSDLVVKVGGVSKFMSAPGLRHGNKAAQITTIIGKGREQ | not soluble
9 | MTPRKPAVKKEVKEEEPGAPGKEGAAEGPLDPSGYNPAKNNYHPVEDACWKPGQKVPYLAVARTFEKIEEVSARLRMVETLSNLLRSVVALSPPDLLPVLYLSLNHLGPPQQGLELGVGDGVLLKAVAQATGRQLESVRAEAAEKGDVGLVAENSRSTQRLMLPPPPLTASGVFSKFRDIARLTGSASTAKKIDIIKGLFVACRHSEARFIARSLSGRLRLGLAEQSVLAALSQAVSLTPPGQEFPPAMVDAGKGKTAEARKTWLEEQGMILKQTFCEVPDLDRIIPVLLEHGLERLPEHCKLSPGIPLKPMLAHPTRGISEVLKRFEEAAFTCEYKYDGQRAQIHALEGGEVKIFSRNQEDNTGKYPDIISRIPKIKLPSVTSFILDTEAVAWDREKKQIQPFQVLTTRKRKEVDASEIQVQVCLYAFDLIYLNGESLVREPLSRRRQLLRENFVETEGEFVFATSLDTKDIEQIAEFLEQSVKDSCEGLMVKTLDVDATYEIAKRSHNWLKLKKDYLDGVGDTLDLVVIGAYLGRGKRAGRYGGFLLASYDEDSEELQAICKLGTGFSDEELEEHHQSLKALVLPSPRPYVRIDGAVIPDHWLDPSAVWEVKCADLSLSPIYPAARGLVDSDKGISLRFPRFIRVREDKQPEQATTSAQVACLYRKQSQIQNQQGEDSGSDPEDTY | soluble
10 | KAGQVDTNDLWSSIPVSPDEYITQRLPILVARMREQWSNNDHVKRYIDLCRRNIVGPRGIVMQAQSRKSRSGALDTAINDAIETWWQDWGRKGQCEVTGKLSWREIQTLCVETCARDGEFIARKIYGTHAGPHGFCLQLIDPLRLPVRYQMLKTDQTGGFVRQGIEFNRFGKPLAYHFSSIDERDTYYYSINGRGYIRVPAEEVIHIFKPVMVGQRRGLPWAATSLLRLHHLQGFEEAAVQNARAAASKMGFVCYPEGVGPRADEQENVAQTIQMNAGPLAIHELPQGAEFQDWNPQYPSGEFGLFTKAAKQSLAAGMDLSYHALSGDLADVNYSSIRQGTLDERERWKEDQQ | not soluble
11 | SLQPEAPKPPQIGMANPASVYCQQKGGTLIPVQTAQGVSNNCKLPGGETIDEWALWRLDHPAGEK | soluble
12 | MGSDKIHHHHHHMYEEIIEKLDLQMNRMISFLSKKMRLFFQDLEKRFTNRAILLYGPRGAGKTTFLLSMARKHGFLYVSGDEILLLDVPLHDLFQEIMKNYPGIIIDEVHLLKNWSTILKVLYDSFPDKVIWTSDSSSVLLRKGISDLSRRFVLIRMPLMSFREFIHFETGKTLRKLSSPFEVSIDYAAEALKEVDLMSLFRKYRETGTRPFYVEGNFREKLMNILQKAIYYDVPHFLGTVTENHLGVMKAIVGHLLHSKIPTINVESMCREWGVGKQKFYQLLQTMEEIELVNIVRKKRVEKPFSKGEKIFLSDPAMYYAFEGEIGNFREAFVVFALKEIGKIYAVKNEEEGDYVFEGIKIEVGGKSKKKKSSDFVIRDDVDLPVRNVIPMWMLGMLW | not soluble
13 | MGHHHHHHGGHMSLSAYKTVVVGTDGSDSSMRAVDRAAQIAGADAKLIIASAYLPQHEDARAADILKDESYKVTGTAPIYEILHDAKERAHNAGAKNVEERPIVGAPVDALVNLADEEKADLLVVGNVGLSTIAGRLLGSVPANVSRRAKVDVLIVHTTEGGS | soluble
14 | MSTKEEITKEIEEQGAEVRRVKGDKNSTEEAKKEAIDKLLALKLTYKEVTGQEYAAPNARQSKPKKEEKPKQQPKQQEKKQDGKKQTLLGVGTKKDDNYSEWYSEVITKAEMIEYYDVSGCYVLRPWSFAVWESIQEWFDSGIKKLGVKNCYFPMFVSNAALEREKTHIADFAPEVAWVTRAGNSEMAEPIAIRPTSETVMYPSYKKWVQSHRDLPIKLNQWCNVVRWEFKHPTPFLRTREFLWQEGHTAFANPADAEKEVFQILDLYAGVYTDLLAIPVVKGRKSEKEKFAGGDFTTTVEAYVACNGRGIQGATSHHLGQNFSKMFDISYEDPAKEGERAFAWQNSWGLSTRTIGAMVMIHGDDKGLVLPPRVAAVQVIVVPVGFKTENKQSLFDAVDKVTKDLVADGVKAEHDLRENYNAGWKFNHWELKGVPIRFEVGPNDLAKNQVTAVIRHNGEKKQLSLEGLSKTVKSLLDEIHTAMYNKVLAQRDSHLKSTTCIEEFKKLLDEKCIILSPFCGRPDCEEEIKKASTREDGEGAQMGAKTLCIPLDQPKQELPSKCLFPSCTYNAKAFALFGRSY | not soluble
15 | MHHHHHHSSGVDLGTENLYFQSMAARVLIIGSGGREHTLAWKLAQSHHVKQVLVAPGNAGTACSEKISNTAISISDHTALAQFCKEKKIEFVVVGPEAPLAAGIVGNLRSAGVQCFGPTAEAAQLESSKRFAKEFMDRHGIPTAQWKAFTKPEEACSFILSADFPALVVKASGLAAGKGVIVAKSKEEACKAVQEIMQEKAFGAAGETIVIEELLDGEEVSCLCFTDGKTVAPMPPAQDHKRLLEGDGGPNTGGMGAYCPAPQVSNDLLLKIKDTVLQRTVDGMQQEGTPYTGILYAGIMLTKNGPKVLEFNCRFGDPECQVILPLLKSDLYEVIQSTLDGLLCTSLPVWLENHTALTVVMASKGYPGDYTKGVEITGFPEAQALGLEVFHAGTALKNGKVVTHGGRVLAVTAIRENLISALEEAKKGLAAIKFEGAIYRKDIGFRAIAFLQ | soluble
16 | MLDKNVLNEIGSKVNEILASSPARDVEKNMRAMLTGAFARLDLVTREEFDVQQEVIKRTRIKLAELEEKVRKLEQQLQQPAEVVSSNETGDA | not soluble
17 | GPGSMDRSVAESIRQQSDDLRDELKELEQWEDAMQAREMAKAQRKVPLPTSVAAAEPPIRGTVPSLKEAIRQQQQQARATGTSGDTAAEAIADPIQQAKDKGNVLFQSGHLQEAVAAYTVGIDLDPASATTHVLYANRAMCYLKLGQWTAAEKDATTCVHMNTGYAKAYYRRAVARKQLGKLREARADLEAVLALAPKDVSAQQEMESVTKALQAKRAAESQATTTATTTKKKRIVIEEVDSEGDEAAAEAPATSASKLSTEEEELHQACIEEDMRRLAAARKANEEQVRQEAQREAAAQAKRQRRHERVEIIEEAEHSPAEKKKMAPSPATSSPVVEQTPPLSTSSPPSSSSPSPTSAATRPRARPPIAKESLTAPKSFSEFERRFRELVQQPDLRDHYVRLLDPATMAKLFGSNMSPEMLLGILQAIKTFNATTALQYAKGLCQVSRVEDVALFFDAQEKAVVQDVLDLLRSAPGTPAKDIQQIERKLKPL | soluble
18 | MLTLLGKIAHFREPLSRQLSLSDTNVTPQISRCAKLNLSVKQKKLLRQSFNAMNSGGTFLKLMEKIFRRLETKCPDMRSIFLTTAFVNSLSRERQTPPLVKTEYDHCKCMVGIFERLIENLENINEQLTMIRHYGEKHAQMAESGFTGAMIEQFGEISVFVIGSQDVVKFNHETVKAWRLLLACVTDEMKVGFDRMSRINGRRNSCNPPSTVPSGN | not soluble
19 | MSLRRPYEALRGHFEKCLATPLRPMNLRTLAGNDKGYIHTAVEQLGARTARSYRAIYSEVQKRSLDREINARLSPLESICRREFECCVELSELAEVYLRKMERGEICDADTSQPNEIIDDAQVDSIMKGEGYGGSGNSGGDSSVKRLIDVLESLRPHENLFDIVVNEEWICSPNFNNWLSRFCTRRVSWRVIHEHLLHLVGPGRYSPIIRTDPNVGSILRHTGTVVVEQYVRSIQSIHGGSMFIHMEEQPDLFTRVPSGRLATSSKVDCPIFPTTSMPPAPSSRVIYSVEGHLEYVFRELMKNACLAMRSRTNSIELQVCFASNDTHVVVDVTDAAGGIAPDAVEKLWLFGWTTNSSFDNKMGGFGIGLPASKCYMDLWGGRIDLYTTEGVGTTVRVIFPKAPTEVFVPKGTEGHHHHHH | soluble
